Tests used:
CD70^− Jurkat cells = experiment: 3H-TdR proliferation assay, hematologic lines; format: cell-based, human; conditions: at concentrations as high as 2 μg/ml
Description: (§1) FIG. 5: Effects of anti-CD70 ADCs on the proliferation of transformed hematologic cell lines. A subset of the CD70^+ cell lines shown in FIG. 4 and the CD70^− Jurkat cell line were tested for their sensitivity toward 1F6 ADCs. Graded doses of the 1F6-vcMMAE, 1F6-vcAFP, or the corresponding non-binding control IgG (IgG) ADCs were added to cells at the initiation of culture. Cells were exposed to the ADCs continuously for a total of 96 hours. Proliferation was determined by pulsing with ^3H-TdR during the last 16 hours of incubation. The upper panels show the response of the WSU-NHL and Jurkat lines. The lower panel summaries the responses by the tested cell lines to 1F6-vcMMAE and 1F6-vcAFP in form of IC50s.
(§2) A subset of the CD70^+ hematologic lines listed in FIG. 4 was tested for sensitivity to the 1F6 ADCs. These lines were seeded at 5,000 cells per well in 96-well plates in quadruplicates in a total of 200 μl of culture medium containing graded doses of the ADCs as indicated in the FIG. 5 and the accompanying figure legend. Proliferation assays were carried out for 96 hours. Tritiated thymidine (^3H-TdR) incorporation during the last 16 hours of incubation was used to assess DNA synthesis. The responses of a CD70^+ B lymphoma cell line WSU-NHL and the CD70^− Jurkat cells are shown in the upper panels of FIG. 5. […] Proliferation inhibitory effects were apparent when the ADCs were used at concentrations higher than 0.005 μg/ml. […] On the other hand, proliferation of the CD70^− Jurkat acute T leukemia cell line was not affected by either 1F6-vcMMAE or 1F6-vcAFP at concentrations as high as 2 μg/ml. […] The responses of other CD70^+ cell lines tested are summarized in the lower panel of FIG. 5. […] Moreover, EBV-LCLs are phenotypically very similar to activated normal B cells.

WSU-NHL cells = experiment: 3H-TdR proliferation assay, hematologic lines; format: cell-based, human; conditions: 96 hours, 3H-TdR last 16 hours
Description: as §1, §2

Caki-1 cells = experiment: 3H-TdR proliferation assay, RCC lines; format: cell-based, human; conditions: Caki-1, 3H-TdR incorporation, 96 hours
786-O cells = experiment: 3H-TdR proliferation assay, RCC lines; format: cell-based, human; conditions: 3H-TdR incorporation, 96 hours
CD70^+ RCC lines [1] = experiment: 3H-TdR proliferation assay, panel of RCC lines; format: cell-based, human; conditions: CD70^+ RCC lines tested
CD70^+ RCC lines [2] = conditions: in 4 of the 7 CD70^+ RCC lines tested
Description: To examine the responses of CD70^+ RCC lines to 1F6 ADCs, cells were seeded between 1,000 to 3,000 cells per well in 100 μl of medium. An additional 100 μl of culture medium containing graded doses of ADCs were added to the wells after cells were allowed to attached overnight. In addition to DNA synthesis, cell viability, as a reflection of the cytotoxic activities of ADCs, was also assayed by the reduction of alamarBlue™ (Biosource International, Camarillo, Calif.). The alamarBlue™ dye was added at a one to four dilution during the last 4 to 24 hours of the incubation. Dye reduction was assessed by fluorescence spectrometry using the excitation and emission wavelengths of 535 nm and 590 nm, respectively. For analysis, the amount of ^3H-TdR incorporated or the extent of alamarBlue™ reduction by the treated cells was compared to that of the untreated control cells.

CD70^− Hs 835.T cells = experiment: 3H-TdR proliferation assay, CD70-negative RCC line; format: cell-based, human; conditions: CD70^− Hs 835.T, compared with CD70^+ RCC lines
[3] = system: PBMCs stimulated with irradiated allogeneic CESS cells; experiment: Mixed lymphocyte reaction (3H-TdR); format: cell-based, human; conditions: MLR
[4] = system: CD70^+ CD8^+/Vβ17^+ T cells; experiment: In vitro deletion of M1 peptide-specific T cells (flow cytometry, viable counts); format: cell-based, human
Description: PBMCs from a normal HLA-A0201donor were stimulated with the M1 peptide for 5 days. 1F6 ADCs or control non-binding IgG (cIgG) ADCs were added to cells to a final concentration of 1 μg/ml. Total viable cell counts were conducted at 24, 48, and 76 hours post drug addition. Total numbers of CD8^+/Vβ17^+ for each culture condition are calculated (upper panel).
FIG. 19: Dose-response comparison of anti-CD70 ADCs on deletion of antigen-specific CD8^+/Vβ17^+ cells. PBMCs from a normal HLA-A0201donor were stimulated with the M1 peptide for 5 days. 1F6 ADCs or control non-binding IgG (cIgG) ADCs were given to cells to the specified final concentrations. The percentages of CD8^+/Vβ17^+ cells 4 days post ADC addition was determined by flow cytometry as in FIG. 17.
To examine CD70 expression on activated antigen-specific T cells, PBMCs from a normal donor expressing HLA-A0201 were stimulated with the M1 peptide. PBMCs were seeded at 2×10^6 cells/ml with 5 μg/ml of M1 peptide in AIMV medium supplemented with 5% human AB serum. IL-2 (Proleukin, Chiron) and IL-15 (R&D Systems, MN) were added to final concentrations of 20 IU/ml and 5 ng/ml, respectively, once every two days beginning on day 2 after culture initiation. The expansion of CD8^+/Vβ17^+ T cells and induction of CD70 on the CD8^+/Vβ17^+ was followed by three-color flow cytometry. Vβ17^+ T cells were identified by the anti-TCRVβ17 mAb clone E17.5F3 (Beckman Coulter, Miami, Fla.).
PBMCs from a normal donor expressing HLA-A0201 were stimulated with the M1 peptide as described in Example 11. On day 5, cells were harvested, washed, and re-seeded at 0.5-1×10^6 cells/ml (approximately 100,000 of CD8^+/Vβ17^+ T cells) in fresh AIMV medium supplemented with 5% human AB, 20 IU/ml of IL-2, and 5 ng/ml of IL-15. 1F6 or control non-binding IgG (cIgG) ADCs were added to some cultures to a final concentration of 1 μg/ml. Total viable cell counts were conducted 24, 48, and 76 hours after ADC addition. Two-color flow cytometry was conducted to determine the percentages of CD8^+/Vβ17^+ cells among the viable cells. The absolute number of CD8^+/Vβ17^+ T cells in each culture was then calculated. […] The effects of 1F6 ADCs on the CD8^+/Vβ17^− cells were also evaluated.
The potency of three 1F6 ADCs was then compared. HLA-A0201 PBMCs were stimulated with the M1 peptide and re-seeded as described for FIG. 18 with the various ADCs at the indicated concentrations (FIG. 19). The percent of CD8^+/Vβ17^+ T cells after a 96-hour incubation was determined.

B1: 1F6-vcAFP: anti-CD70 mAb 1F6 linked to auristatin phenylalanine phenylenediamine by the valine-citrulline (vc) dipeptide linker (conjugate)
VH: QIQLVQSGPEVKKPGETVKISCKASGYTFTNYGMNWVKQAPGKGLKWMGWINTYTGEPTYADAFKGRFAFSLETSASTAYLQINNLKNEDTATYFCARDYGDYGMDYWGQGTSVTVSS
VL: DIVLTQSPASLAVSLGQRATISCRASKSVSTSGYSFMHWYQQKPGQPPKLLIYLASNLESGVPARFSGSGSGTDFTLNIHPVEEEDAATYYCQHSREVPWTFGGGTKLEIKR
modifications: non-natural residues
notes: anti-CD70 mAb 1F6 linked to auristatin phenylalanine phenylenediamine by the valine-citrulline (vc) dipeptide linker
effect on proliferation of Jurkat cells (CD70^− Jurkat cells): not affected | effect on the proliferation of WSU-NHL cells (WSU-NHL cells): dose-dependent inhibitory effects | concentration at which maximal proliferation inhibitory effects were achieved (Caki-1 cells): lower than 0.1 μg/ml | concentration at which maximal proliferation inhibitory effects were achieved (786-O cells): lower than 0.1 μg/ml | IC50 values for proliferation inhibition (CD70^+ RCC lines [1]): 2 to 247 ng/mL | IC50 values to induce cytotoxicity (CD70^+ RCC lines [2]): lower than 20 ng/ml | IC50 values for proliferation inhibition (CD70^− Hs 835.T cells): Substantially higher IC50 values | relative activity [3]: more active than 1F6-vcMMAE | IC50, T cell proliferation ([3]; 5-day culture): approximately 0.1 μg/ml | effect on T cell proliferation ([3]; 5-day culture): substantially inhibited T cell proliferation | number of CD8^+/Vβ17^+ T cells ([4]; 1 μg/ml, 76 hours after ADC addition): Virtually no expansion | CD8^+/Vβ17^+ cells, of the control untreated culture ([4]; 1 μg/ml, end of the experiment): < 40% | inhibition of CD8^+/Vβ17^+ T cell expansion ([4]; 96-hour incubation): dose-dependent inhibition

— patent US8663642B2, “Anti-CD70 antibody-drug conjugates and their use for the treatment and prevention of cancer and immune disorders” (priority 2003, dated 2014)
